Reference: patent US20190194683A1 (WISCONSIN ALUMNI RESEARCH FOUNDATION, published 2019)

T1: α-SNAPRhg1WT1-279 (WT α-SNAP lacking the final 10 C-terminal residues) (Glycine max (soybean))
T1 construct: also called α-SNAP lacking the C-terminus
T1 chain: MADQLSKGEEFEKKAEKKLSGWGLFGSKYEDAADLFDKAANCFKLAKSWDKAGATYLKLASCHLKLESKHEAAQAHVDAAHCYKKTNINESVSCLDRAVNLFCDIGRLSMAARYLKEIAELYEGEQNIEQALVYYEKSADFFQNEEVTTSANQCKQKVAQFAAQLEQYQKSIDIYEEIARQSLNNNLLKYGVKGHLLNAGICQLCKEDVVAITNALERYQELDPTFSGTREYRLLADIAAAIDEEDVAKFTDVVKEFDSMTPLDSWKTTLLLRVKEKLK

T2: α-SNAPRhg1LC1-279 (α-SNAPRhg1LC lacking the final 10 C-terminal residues) (Glycine max (soybean))
T2 construct: both say that the final 10 C-terminal residues are missing; also called α-SNAPRhg1LC1-280
T2 chain: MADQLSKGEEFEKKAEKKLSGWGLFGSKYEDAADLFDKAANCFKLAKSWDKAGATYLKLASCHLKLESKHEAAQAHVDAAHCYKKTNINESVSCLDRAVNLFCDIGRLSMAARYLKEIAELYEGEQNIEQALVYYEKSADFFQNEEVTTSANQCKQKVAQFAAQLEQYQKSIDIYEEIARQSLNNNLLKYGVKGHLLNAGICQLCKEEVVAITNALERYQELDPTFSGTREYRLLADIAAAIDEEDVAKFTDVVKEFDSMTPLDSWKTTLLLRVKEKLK

T3: α-SNAPRhg1WT (wild-type α-SNAP encoded by Glyma.18G022500, Williams 82) (Glycine max (soybean))
T3 construct: also called WT α-SNAP; wild-type (WT) Rhg1 α-SNAP
T3 chain: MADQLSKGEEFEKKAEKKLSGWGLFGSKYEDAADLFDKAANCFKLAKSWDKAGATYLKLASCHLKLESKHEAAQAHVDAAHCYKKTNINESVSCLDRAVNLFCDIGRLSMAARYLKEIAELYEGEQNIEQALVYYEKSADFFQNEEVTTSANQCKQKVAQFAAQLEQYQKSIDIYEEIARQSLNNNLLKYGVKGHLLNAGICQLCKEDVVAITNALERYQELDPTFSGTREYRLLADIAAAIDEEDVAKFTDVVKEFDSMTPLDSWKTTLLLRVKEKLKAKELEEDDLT

T4: α-SNAPRhg1HC (high copy Rhg1 resistance-type α-SNAP, Glyma.18G022500 Fayette) (Glycine max (soybean))
T4 construct: Recombinant protein, His-SUMO tag cleaved off; also called high copy (HC) Rhg1 α-SNAP
T4 chain: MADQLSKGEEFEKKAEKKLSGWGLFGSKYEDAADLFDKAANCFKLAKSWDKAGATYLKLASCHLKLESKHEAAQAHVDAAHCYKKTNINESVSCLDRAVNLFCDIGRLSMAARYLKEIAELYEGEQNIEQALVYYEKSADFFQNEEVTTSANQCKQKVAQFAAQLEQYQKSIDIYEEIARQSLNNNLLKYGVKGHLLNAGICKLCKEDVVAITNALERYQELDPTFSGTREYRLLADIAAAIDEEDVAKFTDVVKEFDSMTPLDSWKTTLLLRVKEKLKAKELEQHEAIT

T5: α-SNAPRhg1LC (low copy Rhg1 resistance-type α-SNAP, Glyma.18G022500 Peking) (Glycine max (soybean))
T5 construct: Recombinant protein, His-SUMO tag cleaved off; also called low-copy (LC) Rhg1 α-SNAP
T5 chain: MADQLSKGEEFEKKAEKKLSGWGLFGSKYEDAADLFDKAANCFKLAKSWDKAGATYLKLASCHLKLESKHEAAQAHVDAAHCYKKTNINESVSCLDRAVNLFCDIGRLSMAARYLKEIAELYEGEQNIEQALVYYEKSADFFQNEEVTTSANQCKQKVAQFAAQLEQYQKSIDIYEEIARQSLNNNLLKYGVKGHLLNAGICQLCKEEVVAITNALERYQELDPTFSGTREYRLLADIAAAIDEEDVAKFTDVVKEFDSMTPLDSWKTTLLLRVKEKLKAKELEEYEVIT


Assays:
[1] = target: T1, α-SNAPRhg1WT1-279 (WT α-SNAP lacking …); test: in vitro binding of recombinant NSF to tube-adsorbed α-SNAP, silver-stained SDS-PAGE
Method: To verify that NSFRAN07/α-SNAP binding is dependent upon NSF-binding patches at the α-SNAP C-terminus, NSFRAN07 binding to an otherwise WT α-SNAP lacking the final 10 C-terminal residues (α-SNAPRhg1WT₁₋₂₇₉) was determined. Binding of NSFCh07WT or NSFRAN07 binding with α-SNAP Rhg1WT₁₋₂₇₉ was disrupted, similar to the no α-SNAP binding controls (FIG. 10C).
(§1) In vitro NSF binding assays were performed essentially as described in Barnard et. al. (1997) J Cell Biol 139(4): 875-883; and Bayless et al. (2016), Proc Natl Acad Sci USA 113(47): E7375-E7382; Briefly, 20 μg of each respective recombinant α-SNAP protein was added to the bottom of a 1.5-mL polypropylene tube and incubated at 25° C. for 20 min. Unbound α-SNAP proteins were then washed by adding α-SNAP wash buffer [25 mM Tris, pH 7.4, 50 mM KCl, 1 mM DTT, 0.4 mg/mL bovine serum albumin (BSA)]. After removal of wash buffer, 20 μg of recombinant NSF (1 μg/μL in NSF binding buffer), was then immediately added and incubated on ice for 10 min. The solution was then removed, and samples were immediately washed 2× with NBB to remove any unbound NSF. Samples were then boiled in 1×SDS loading buffer and separated on a 10% Bis-Tris SDS-PAGE, and silver-stained using the ProteoSilver Kit (Sigma-Aldrich), according to the manufacturer directions. The percentage of NSF bound by α-SNAP was then calculated using densitometric analysis with ImageJ.

[2] = target: T2, α-SNAPRhg1LC1-279 (α-SNAPRhg1LC lacking …); test: in vitro binding
[3] = target: T3, α-SNAPRhg1WT (wild-type α-SNAP encoded …); test: in vitro binding: α-SNAP adsorbed to tube, recombinant NSF added, bound NSF on silver-stained SDS-PAGE, ImageJ densitometry
Source text: (§2) All Rhg1-containing HG type test and NAM lines contained NSFRAN07, and α-SNAPRhg1HC and α-SNAPRhg1LC are polymorphic at C-terminal residues that bind and stimulate NSF. Therefore, the impact of NSFRAN07 polymorphisms on binding to both Rhg1 resistance-type α-SNAPs and α-SNAPRhg1WT was investigated. Recombinant NSFRAN07, NSFCh07 and Rhg1 α-SNAP proteins were produced for in vitro binding studies as previously described in (Barnard et al., 1997, J Cell Biol 139, 875-883; (Bayless et al. 2016, Proc. Natl. Acad. Sci. USA 113, E7375-E7382). NSFRAN07 and NSFCh07 binding was quantified using ImageJ densitometry across three independent experiments (FIG. 3D). NSFCh07 binding to α-SNAPRhg1HC and α-SNAPRhg1LC was reduced compared to α-SNAPRhg1WT (FIG. 3C). In contrast, NSFRAN07 binding to α-SNAPRhg1HC or α-SNAPRhg1LC was similar to α-SNAPRhg1WT binding, and was increased ˜30% relative to NSFCh07.
as §1

[4] = target: T4, α-SNAPRhg1HC (high copy Rhg1 …); test: as above
Source text: as §2, §1

[5] = target: T5, α-SNAPRhg1LC (low copy Rhg1 …); test: as above
Source text: as §2, §1

[6] = target: T4, α-SNAPRhg1HC (high copy Rhg1 …); test: in vitro binding, densitometry of silver-stained SDS-PAGE across three independent experiments; reference NSFCh07 on the same α-SNAP
Source text: as §2
(§3) In vitro NSF binding assays were performed essentially as described in Barnard et. al. (1997) J Cell Biol 139(4): 875-883; and Bayless et al. (2016), Proc Natl Acad Sci USA 113(47): E7375-E7382; Briefly, 20 μg of each respective recombinant α-SNAP protein was added to the bottom of a 1.5-mL polypropylene tube and incubated at 25° C. for 20 min. […] The percentage of NSF bound by α-SNAP was then calculated using densitometric analysis with ImageJ.

[7] = target: T5, α-SNAPRhg1LC (low copy Rhg1 …); test: as above
Source text: as §2, §3

| Binder | binding result [1] | binding result [2] | binding result [3] | binding result [4] | binding result [5] | increase of binding relative to NSFCh07 [6] | increase of binding relative to NSFCh07 [7] |
| --- | --- | --- | --- | --- | --- | --- | --- |
| NSFCh07 (wild-type NSF encoded by Glyma.07G195900, soybean reference genome Williams 82) (enzyme, Recombinant protein from E. coli; also called NSFCh07WT; NSF-WT) MASRFGLSSSSSSASSMRVTNTPASDLALTNLAFCSPSDLRNFAVPGHNNLYLAAVADSFVLSLSAHDTIGSGQIALNAVQRRCAKVSSGDSVQVSRFVPPEDFNLALLTLELEFVKKGSKSEQIDAVLLAKQLRKRFMNQVMTVGQKVLFEYHGNNYSFTVSNAAVEGQEKSNSLERGMISDDTYIVFETSRDSGIKIVNQREGATSNIFKQKEFNLQSLGIGGLSAEFADIFRRAFASRVFPPHVTSKLGIKHVKGMLLYGPPGTGKTLMARQIGKILNGKEPKIVNGPEVLSKFVGETEKNVRDLFADAEQDQRTRGDESDLHVIIFDEIDAICKSRGSTRDGTGVHDSIVNQLLTKIDGVESLNNVLLIGMTNRKDMLDEALLRPGRLEVQVEISLPDENGRLQILQIHTNKMKENSFLAADVNLQELAARTKNYSGAELEGVVKSAVSYALNRQLSLEDLTKPVEEENIKVTMDDFLNALHEVTSAFGASTDDLERCRLHGMVECGDRHKHIYQRAMLLVEQVKVSKGSPLVTCLLEGSRGSGKTALSATVGIDSDFPYVKIVSAESMIGLHESTKCAQIIKVFEDAYKSPLSVIILDDIERLLEYVPIGPRFSNLISQTLLVLLKRLPPKGKKLMVIGTTSELDFLESIGFCDTFSVTYHIPTLNTTDAKKVLEQLNVFTDEDIDSAAEALNDMPIRKLYMLIEMAAQGEHGGSAEAIFSGKEKISIAHFYDCLQDVVRL | no binding (tested: 20 µg NSF (1 µg/µL)) | no binding | binds | binds | binds |  |  |
| NSFRAN07 (Rhg1-associated NSF from chromosome 07, allele of Glyma.07G195900) (enzyme, Recombinant protein from E. coli, ORF cloned from Forrest (Rhg1LC) cDNA; Differs from NSFCh07 by R4Q, N21Y, S25N, insertion 116F and M181I; also called Glyma.07G195900 RAN07) MASQFGLSSSSSSASSMRVTYTPANDLALTNLAFCSPSDLRNFAVPGHNNLYLAAVADSFVLSLSAHDTIGSGQIALNAVQRRCAKVSSGDSVQVSRFVPPEDFNLALLTLELEFFVKKGSKSEQIDAVLLAKQLRKRFMNQVMTVGQKVLFEYHGNNYSFTVSNAAVEGQEKSNSLERGIISDDTYIVFETSRDSGIKIVNQREGATSNIFKQKEFNLQSLGIGGLSAEFADIFRRAFASRVFPPHVTSKLGIKHVKGMLLYGPPGTGKTLMARQIGKILNGKEPKIVNGPEVLSKFVGETEKNVRDLFADAEQDQRTRGDESDLHVIIFDEIDAICKSRGSTRDGTGVHDSIVNQLLTKIDGVESLNNVLLIGMTNRKDMLDEALLRPGRLEVQVEISLPDENGRLQILQIHTNKMKENSFLAADVNLQELAARTKNYSGAELEGVVKSAVSYALNRQLSLEDLTKPVEEENIKVTMDDFLNALHEVTSAFGASTDDLERCRLHGMVECGDRHKHIYQRAMLLVEQVKVSKGSPLVTCLLEGSRGSGKTALSATVGIDSDFPYVKIVSAESMIGLHESTKCAQIIKVFEDAYKSPLSVIILDDIERLLEYVPIGPRFSNLISQTLLVLLKRLPPKGKKLMVIGTTSELDFLESIGFCDTFSVTYHIPTLNTTDAKKVLEQLNVFTDEDIDSAAEALNDMPIRKLYMLIEMAAQGEHGGSAEAIFSGKEKISIAHFYDCLQDVVRL | no binding (tested: 20 µg NSF (1 µg/µL)) | no binding | binds |  |  | ~30% | ~30% |
